The target of assay [1] is HIV-1 NL4-3 CA N21C/A22C/W184A/M185A (disulfide-crosslinked pentamer) (HIV-1 NL4-3). Put plainly: crystal structure.
Assay [2] has as its target HIV-1 NL4-3 CA P17C/R18L/T19C/W184A/M185A (disulfide-crosslinked pentamer) (HIV-1 NL4-3). As to the kind of experiment: crystal structure.

By stoichiometry N is commonly meant the number of molecules, sites or subunits per partner or assembly.

For “HIV-1 NL4-3 CA N21C/A22C/W184A/M185A (disulfide-crosslinked pentamer) (natural protein)”, the stoichiometry N in assay [1] was 5.
“HIV-1 NL4-3 CA P17C/R18L/T19C/W184A/M185A (disulfide-crosslinked pentamer) (natural protein)” gave a stoichiometry N in assay [2] of 5.

These data come from publication PMC3075868.
